Measurements: patent publication US7179464 (Kyowa Kirin, dated 2007)

T1: human IL-5R α chain expressed on cells (human, UniProt Q01344 21-420)
T1 construct: whole, on cells; also called hIL-5R α; CTLL-2(h5R)
T1 sequence (looked up): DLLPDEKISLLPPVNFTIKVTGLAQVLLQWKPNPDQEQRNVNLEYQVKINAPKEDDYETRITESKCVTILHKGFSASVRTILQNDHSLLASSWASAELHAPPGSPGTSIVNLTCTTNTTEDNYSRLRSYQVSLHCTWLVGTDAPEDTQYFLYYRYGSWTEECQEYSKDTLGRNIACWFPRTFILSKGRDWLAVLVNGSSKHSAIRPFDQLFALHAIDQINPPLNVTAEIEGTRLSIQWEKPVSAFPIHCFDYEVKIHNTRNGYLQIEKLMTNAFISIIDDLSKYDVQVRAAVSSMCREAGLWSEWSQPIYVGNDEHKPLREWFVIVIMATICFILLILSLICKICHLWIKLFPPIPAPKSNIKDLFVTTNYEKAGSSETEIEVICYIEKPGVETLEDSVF

B1: anti-human IL-5R α chain human CDR-grafted antibody KM8399 (antibody, human IgG1, V domains shown)
VH: EVQLVQSGAEVKKPGASVKVSCKASGYTFTSYVIHWVRQRPGQGLAWMGYINPYNDGTKYNERFKGKVTITSDRSTSTVYMELSSLRSEDTAVYLCGREGIRYYGLLGDYWGQGTLVTVSS
VL: DIQMTQSPSSLSASVGDRVTITCGTSEDIINYLNWYQQKPGKAPKLLIYHTSRLQSGVPSRFSGSGSGTDFTLTISSLQPEDFATYYCQQGYTLPYTFGQGTKVEIK
notes: also called HV.3LV.0; pKANTEX1259HV3LV0
B2: anti-human IL-5R α chain human CDR-grafted antibody KM9399 of human antibody IgG4 subclass (antibody, V domains shown)
VH: B1 VH
VL: B1 VL
notes: Same V regions as KM8399 (built from pKANTEX1259HV3LV0); also called pKANTEX1259HV3LV0γ4; transformant KM9399 (FERM BP-5647)
B3: anti-human IL-5R α monoclonal antibody KM1257 (antibody, V domains shown)
VH: EVQLVESGGDLVKPGGSLKLSCAASGFTFSDYGMAWIRQISDKRPEWVAAISSGGSYIHFPDSLKGRFTVSRDNAKNTLYLEMSGLKSEDTAMYYCARRGFYGNYRAMDYWGQGTSVTVSS
VL: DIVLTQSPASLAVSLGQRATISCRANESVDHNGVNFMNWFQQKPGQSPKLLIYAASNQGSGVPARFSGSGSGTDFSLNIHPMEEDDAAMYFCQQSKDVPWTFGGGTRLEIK
notes: Mouse IgG1; also called hybridoma KM1257 (FERM BP-5133)

Key:
[1] = target: T1, human IL-5R α chain expressed on cells; experiment: flow cytometry on CTLL-2(h5R) cells, antibody at 10 µg/ml
Protocol: (§1) Briefly, 5 ×10^5 cells obtained by transfecting a human IL-5R gene into CTLL-2 cells (ATCC TIB 214) [hereinafter referred to as "CTLL-2(h5R)"] [J. Exp. Med., 177, 1523 (1993)] or 5 ×10^5 CTLL-2 cells as a control were suspended in an immunocyte staining buffer (PBS containing 1% BSA, 0.02% EDTA and 0.05% sodium azide) and dispensed into a round bottom 96-well plate (100 μl/well). After centrifuging at 350×g for 1 minute at 4° C., the supernatant was discarded. Then, 50 μl of the immunocyte staining buffer containing 10 μg/ml of an hIL-5R α antibody were added to each well and reacted at 4° C. for 30 minutes. After the reaction, the immunocyte staining buffer was added (200 μl/well) and centrifuged at 350×g for 1 minute at 4° C. and then the supernatant was removed to wash the cells. The washing operation was further repeated twice. Thereafter, 50 μl of the immunocyte staining buffer containing FITC-labeled anti-mouse immunoglobulin antibody or FITC-labeled anti-human immunoglobulin antibody (both manufactured by Wako Pure Chemical Industries, Ltd.) diluted 30 folds with a staining buffer were added to each well and reacted at 4° C. for 30 minutes. After the reaction, a similar washing operation was repeated three times. Then, the cells were analyzed with a flow cytometer (Coulter).

[2] = target: T1, human IL-5R α chain expressed on cells; experiment: immunocyte staining, flow cytometry on CTLL-2(h5R) cells
Protocol: as §1

binding result [1] | binding result [2] | Binder
binds | – | B1
binds | – | B2
– | binds | B3
